Experimental findings from patent publication US20250215097A1 (BEIJING TIANNUOJIANCHENG PHARMA TECH, published 2025) are described below.

Assay [1] has as its target T1, human CCR8 (human, UniProt P51685 1-355). In words: cell-based or functional assay.
Assay [2] concerns the target T1, human CCR8. In words: cell-based or functional assay. The source holds these as a separate data set.
The target in assay [3] is T1, human CCR8. The assay is described as follows: flow cytometry, chimeric IgG on CHO-hCCR8 cells. The method, then: (§1) 5×10⁴ CHO-hCCR8 or CHO-cynoCCR8 cells were added per well in a 96-well U-shaped plate and centrifuged to discard the supernatant, 100 μL of a gradiently diluted anti-CCR8 chimeric antibody or anti-KLH isotype control antibody was added per well and the mixture was incubated on ice for 60 minutes. After the unbound primary antibody was washed away, 50 μL of a secondary antibody AlexaFluro647 anti-human IgG (Jackson Immuno Research #109-606-170) was added per well and the mixture was incubated on ice for 30 minutes. After the washing, 50 μL of 5 μg/mL of a PI/BSA solution was added to each well and the mixture was incubated on ice for 5 minutes. Then excess secondary antibody was washed away with 0.5% BSA, the cells were resuspended by adding a PBS solution, and binding of the antibody to the cells was detected using a flow cytometer (Intellicyte iQue). The fluorescence value of a Pi-negative cell population was analyzed. Cell-binding curves were fitted by Graphpad Prism 7 (FIG. 2). The chimeric antibodies of 87D8, 102H5, 109F6, 110G2, 113B3, 139A9, 144D2, etc. all bound with high affinities to human CCR8+ cells CHO-hCCR8 and cynomolgus monkey CCR8+ cells CHO-cynoCCR8.
(Flow cytometry measures light scatter and fluorescence of single cells or particles in a stream.)

The target of assay [4] is T1, human CCR8. In words: cell-based or functional assay. The source holds these as a separate data set.
Assay [5] deals with T2, cynomolgus monkey CCR8 (cynomolgus monkey, UniProt O97665 1-356 (rhesus entry)).
T2 construct: Full-length, stably expressed on CHO cells; also called cynoCCR8; CHO-cynoCCR8
T2 sequence (O97665 other isoform, or with tags, fused parts or gaps): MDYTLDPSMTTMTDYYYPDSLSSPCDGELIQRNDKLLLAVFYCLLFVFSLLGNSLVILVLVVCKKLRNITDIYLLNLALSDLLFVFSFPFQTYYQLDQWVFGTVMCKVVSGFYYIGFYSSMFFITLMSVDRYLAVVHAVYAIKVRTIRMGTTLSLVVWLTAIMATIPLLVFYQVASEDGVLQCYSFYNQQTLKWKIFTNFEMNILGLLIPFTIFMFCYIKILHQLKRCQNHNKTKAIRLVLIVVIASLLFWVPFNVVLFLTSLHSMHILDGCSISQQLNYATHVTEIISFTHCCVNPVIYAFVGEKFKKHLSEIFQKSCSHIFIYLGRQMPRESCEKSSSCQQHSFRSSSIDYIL
The assay is described as follows: flow cytometry, chimeric IgG on CHO-cynoCCR8 cells. The method, then: as §1

In assay [6] the target is T3, human CCR4 (human, UniProt P51679 1-360).
T3 construct: also called hCCR4; human CCR4+ cells
T3 sequence: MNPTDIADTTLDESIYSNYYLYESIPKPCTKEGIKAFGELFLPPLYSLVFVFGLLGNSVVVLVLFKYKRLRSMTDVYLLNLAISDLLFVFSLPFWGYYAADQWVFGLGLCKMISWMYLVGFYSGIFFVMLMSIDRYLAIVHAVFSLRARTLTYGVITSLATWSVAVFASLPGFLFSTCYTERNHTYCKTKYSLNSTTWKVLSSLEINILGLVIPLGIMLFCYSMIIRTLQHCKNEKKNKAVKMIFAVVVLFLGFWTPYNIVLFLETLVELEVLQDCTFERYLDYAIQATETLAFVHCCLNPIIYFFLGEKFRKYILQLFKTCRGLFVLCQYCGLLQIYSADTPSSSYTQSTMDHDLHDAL
In words: flow cytometry of purified Fab on cells stably expressing human CCR4. As for the experimental part:
The positive clones obtained in example 1 were re-induced to express and purified to obtain a Fab antibody. The binding to cells stably expressing human CCR8, cynomolgus monkey CCR8 and human CCR4 was tested respectively, 5×10⁴ test cells were added to each well of a 96-well U-shaped plate and centrifuged to discard the supernatant, 100 μL/well of the purified Fab antibody was added and the mixture was incubated on ice for 60 minutes. After washing away the unbound primary antibody, 50 μL of a secondary antibody solution (Anti-human IgG, F(ab′)2-AF647, Jackson Immuno Research) was added to each well and the mixture was incubated on ice for 30 minutes. After washing, 50 μL of a PI/BSA solution at 5 μg/mL was added to each well and the mixture was incubated on ice for 5 minutes. Then excess secondary antibody was washed away with 0.5% BSA, the cells were resuspended by adding a PBS solution, and binding of the antibody to the cells was detected using a flow cytometer (Intellicyte iQue).

Assay [7] addresses T1, human CCR8. The assay is described as follows: flow cytometry, purified Fab on CHO-hCCR8 cells.

Residue numbers refer to the chain shown, from its start.

As usually defined, the EC50 is the concentration needed to bring the measured effect to its halfway point.

T1 sequence (P51685 whole entry): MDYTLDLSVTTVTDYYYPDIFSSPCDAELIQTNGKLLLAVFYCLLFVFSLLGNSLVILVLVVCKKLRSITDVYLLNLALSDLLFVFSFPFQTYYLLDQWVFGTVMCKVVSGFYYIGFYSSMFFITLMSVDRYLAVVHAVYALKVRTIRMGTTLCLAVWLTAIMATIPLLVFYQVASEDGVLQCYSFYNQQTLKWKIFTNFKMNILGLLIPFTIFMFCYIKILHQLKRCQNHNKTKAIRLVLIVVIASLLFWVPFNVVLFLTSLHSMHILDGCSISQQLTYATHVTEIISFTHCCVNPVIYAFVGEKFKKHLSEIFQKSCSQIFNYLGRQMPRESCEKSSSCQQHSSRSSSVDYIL

B1: h87D8 H1K1 hIgG1 e5 (antibody, V domains shown)
VH: EVQLVESGGGLVQPGGSLRLSCAASGFTFNTYAMNWVRQAPGKGLEWVARIRSKSNNYATYYADSVKGRFTISRDDSQSSLYLQMNSLRAEDTAVYYCVRGKEAGAYYAMDYWGQGTLVTVSS
VL: DIVMTQSPLSLPVTPGEPASISCRSSKSLLHSNGNTYLYWFLQKPGQSPQLLIYRMSNLASGVPDRFSGSGSGTDFTLKISRVEAEDVGVYYCMQHLEYPLTFGQGTKLEIKR
Consider B1, for which, in assay [1], the “ADCC EC50 (nM), PBMC FcγRIIIA158F/F effectors, HEK293-hCCR8 targets” value came out at 0.01 nM; the “ADCC EC50 (nM), PBMC FcγRIIIA158V/V effectors, HEK293-hCCR8 targets” value came out at 0.01 nM; the “ADCC maximal lysis rate, PBMC FcγRIIIA158F/F effectors, HEK293-hCCR8 targets” value was 70%; the “ADCC maximal lysis rate, PBMC FcγRIIIA158V/V effectors, HEK293-hCCR8 targets” value is 72%. For the same molecule, in assay [2], the “ADCC maximal lysis rate, NK92-CD16A effectors, HEK293-hCCR8 targets” value stood at 58% and the “half-maximal effective concentration EC50 of inhibition of the Ca2+ current signal, CHO-hCCR8 cells, CCL1 stimulus” value was 5.59 nM.

B2: 102H5 anti-CCR8 chimeric antibody (antibody, V domains shown)
VH: QVQLVESNGRLVQPKGSLKLSCAASGFTFNAYAMNWVRQAPGKGLEWVARIRSKSNNYATYYADSVKDRFTISRDDSQNMLYLQMNNLKTEDTAMYFCVRQKFGARGYYALDFWGQGATVTVSS
VL: DIVLTQSPASLAVSLGQRATISCRASESVEYYGTSLMQWYQQKPGQPPKLLIYAASNVESGVPARFSGSGSGTDFSLNIHPVEEDDIAMYFCQQSRKVPYTFGGGTKLEIK
Turning to B2, the EC50 came to 0.46 nM in assay [3] and 1.18 nM in assay [5]. In addition, the “ADCC EC50 (nM), NK92-CD16A effectors, HEK293-hCCR8 targets, LDH release” value (“ADCC EC50 (nM), NK92-CD16A effectors” below) in assay [4] is 0.06 nM.

B3: 139A9 Fab antibody (Fab, V domains shown)
VH: B2 VH with N79S, T119S
VL: ENVLTQSPTTMAASPGEKITITCSASSSISSNYLHWYQQKPGFSPKLLIYRTSNLASGVPARFSGSGSGTSYSLTIGTMEAEDVATYYCQQGSSIPLTFGAGTKLELK
notes: also called clone 139A9
As to B3, in assay [6], the binding result was “no binding”.

B4: 109F6 Fab antibody (Fab, V domains shown)
VH: B2 VH with N79S, T119S
VL: DIVLTQSPASLAVSLGQRATISCRASKSVSTSGYSYMHWYQQKPGQPPKLLIYLASNLESGVPARFSGSGSGTDFTLNIHPVEEEDAATYYCQHSRELPPTFGGGTKLEIK
notes: also called clone 109F6
Take B4: the binding result in assay [6] is on record as “no binding”.

B5: 116F10 anti-CCR8 chimeric antibody (antibody, V domains shown)
VH: B2 VH with Q1E, N8Y, R10G, M80I, T90I, A105S, T119S
VL: EIVLTQSPAIMSVSPGEKVTMTCRASSSVSSSYLHWYQQKSGASPKLWIYSTSTLASGVPARFSGSGSGTSYSLTISSVEAEDAATYYCQHYTVYPLGTFGGGTKLEIK
In the case of B5, the EC50 in assay [3] amounted to 0.58 nM; in assay [5], 1.25 nM. For the same molecule, the “ADCC EC50 (nM), NK92-CD16A effectors” value in assay [4] is 0.1 nM.

B6: 110G2 anti-CCR8 chimeric antibody (antibody, V domains shown)
VH: B2 VH with N79S, T119S
VL: EILLTQSPAIMSASPGEKVTMTCRASSSVSSSYLHWYQQKSGASPKLWIYSTSNLASGVPARFSGSGSGTSYSLTISSVEAEDAATYYCQQYSGYPYTFGGGTKLEIK
In the case of B6, the results for the EC50 in assay [3] and in assay [5] were 0.45 nM and 1.26 nM, respectively. The “ADCC EC50 (nM), NK92-CD16A effectors” value in assay [4] is 0.04 nM.

B7: 139A9 anti-CCR8 chimeric antibody (antibody, V domains shown)
VH: B2 VH with N79S, T119S
VL: B3 VL
As to B7, the EC50 in assay [3] came to 0.49 nM; in assay [5], 1.99 nM. The “ADCC EC50 (nM), NK92-CD16A effectors” value in assay [4] was 0.06 nM.

B8: 113B3 Fab antibody (Fab, V domains shown)
VH: B2 VH with Q1E, R10G, N79S, A105S
VL: QIVLTQSPAIMSASLGERVTMTCTASSSVSSSYLHWYQQKPGSSPKLWIYSTSNLASGVPARFSGSGSGTSYSLTISSMEAEDAATYYCHQYHRSPRTFGGGTRLEIK
notes: also called clone 113B3
Take B8: the binding result in assay [6] was “no binding”.

B9: 113B3 anti-CCR8 chimeric antibody (antibody, V domains shown)
VH: B2 VH with Q1E, R10G, N79S, A105S
VL: B8 VL
For B9, the EC50 was determined as 0.4 nM in assay [3] and 1.99 nM in assay [5]. Also, the “ADCC EC50 (nM), NK92-CD16A effectors” value in assay [4] was found to be 0.04 nM.

B10: 110G2 Fab antibody (Fab, V domains shown)
VH: B2 VH with N79S, T119S
VL: B6 VL
notes: also called clone 110G2
Regarding B10, in assay [6], the binding result is recorded as “no binding”.

B11: 116F10 Fab antibody (Fab, V domains shown)
VH: B2 VH with Q1E, N8Y, R10G, M80I, T90I, A105S, T119S
VL: B5 VL
notes: also called clone 116F10
For B11, the binding result in assay [6] is on record as “no binding”.

B12: 109F6 anti-CCR8 chimeric antibody (antibody, V domains shown)
VH: B2 VH with N79S, T119S
VL: B4 VL
Turning to B12, the EC50 in assay [3] came out at 0.2 nM; in assay [5], 0.74 nM. Besides, the “ADCC EC50 (nM), NK92-CD16A effectors” value in assay [4] came to 0.07 nM.

B13: 102H5 Fab antibody (Fab, V domains shown)
VH: B2 VH
VL: B2 VL
notes: also called clone 102H5
Take B13: the binding result in assay [6] is reported as “no binding”.

B14: 144D2 Fab antibody (Fab, V domains shown)
VH: EVQLVESGGGLVQPKGSLKLSCAASGFTFNAFAMNWVRQAPGKGLEWVARIRSKSNNYATYYADSVIDRFTISRDDSQSMLYLQMNNLKTEDTAMYYCVRGKEAGAYYAMDYWGQGTSVTVSS
VL: DIVMTQAAPSVPVTPGESVSISCRSSKSLLHSNGNTYLYWFLQRPGQSPQLLIYRMSNLASGVPDRFSGSGSGTAFTLRISRVEAEDVGVYYCMQHLEYPLTFGAGTKLEIK
notes: also called clone 144D2; 144D2 (female parent)
For B14, in assay [6], the binding result was “no binding”. In assay [7], this molecule yielded an EC50 of 2.8 nM.
